{"source": "paper PMC10722681", "about": "“RGCC-mediated PLK1 activity drives breast cancer lung metastasis by phosphorylating AMPKα2 to activate oxidative phosphorylation and fatty acid oxidation” (Journal of Experimental & Clinical Cancer Research : CR, 2023)", "biological_target": "HA-PLK1 (human, UniProt P53350 1-603)", "sequence (P53350 whole entry)": "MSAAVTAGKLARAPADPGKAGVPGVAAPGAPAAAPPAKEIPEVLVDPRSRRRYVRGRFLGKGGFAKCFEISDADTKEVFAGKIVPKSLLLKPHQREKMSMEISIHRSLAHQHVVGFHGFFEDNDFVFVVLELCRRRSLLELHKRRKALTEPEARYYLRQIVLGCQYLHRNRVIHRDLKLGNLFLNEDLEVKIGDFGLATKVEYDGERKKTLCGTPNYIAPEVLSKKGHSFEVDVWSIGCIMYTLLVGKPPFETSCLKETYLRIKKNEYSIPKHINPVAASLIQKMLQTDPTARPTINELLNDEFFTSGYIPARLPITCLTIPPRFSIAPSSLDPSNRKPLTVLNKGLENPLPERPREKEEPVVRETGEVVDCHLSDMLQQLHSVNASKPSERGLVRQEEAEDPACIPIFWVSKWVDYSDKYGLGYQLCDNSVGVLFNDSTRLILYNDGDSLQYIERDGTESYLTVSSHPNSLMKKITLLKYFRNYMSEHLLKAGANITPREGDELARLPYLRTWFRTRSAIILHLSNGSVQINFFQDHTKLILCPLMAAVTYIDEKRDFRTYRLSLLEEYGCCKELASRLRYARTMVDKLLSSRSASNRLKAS", "test": "cell-based or functional assay", "data": [{"binder": "GST-RGCC (natural protein, UniProt Q9H4X1 1-137, looked up) MKPPAAQGSPAAAAAAAPALDSAAAEDLSDALCEFDAVLADFASPFHERHFHYEEHLERMKRRSSASVSDSSGFSDSESADSLYRNSFSFSDEKLNSPTDSTPALLSATVTPQKAKLGDTKELEAFIADLDKTLASM", "values": [{"measurement": "in vitro PLK1 kinase activity (universal kinase activity kit, purified PLK1 with AMPKα2 and ATP); EC50 of RGCC for activation of PLK1", "value": 19.4, "unit": "nM"}]}]}
